Reference: patent US20070004619A1, “Relaxin superfamily peptide analogues” (Howard Florey Institute of Experimental Physiology and …, priority 2003, published 2007)
Positions of bridges follow the written chain, without caps; N, C: chain ends. No end group written: not given here.

Key:
[1] = Circular dichroism (CD) spectroscopy; type: physicochemical; settings: FIG. 5; in water and phosphate buffered saline
Method: Circular Dichroism (CD) Spectroscopy:
CD spectra were taken on a Jasco J-720 instrument at room temperature in a 1 mm path-length cell, Doubly distilled water, 10 mM sodium phosphate buffer containing 120 mM NaCl pH 7.4, and spectroscopy grade trifluoroethanol (TFE) were used as solvents. The peptide concentrations were made to 1 μM, determined by quantitative RP-HPLC and amino acid analysis (ref). Curves were smoothed by the algorithm provided by Jasco, Mean residue ellipticity ([θ]MR) is expressed in degrees×cm2/dmole by using the molecular mass. CD spectra evaluations were based on comparison with known peptide conformations (Otvos, L., Jr. 1996. from Neuropeptide protocols. Irvine, G. & Williams, C., Eds. pp 153-161. Humana Press, Totowa, N.J.).

[2] = biological target: T1, human LGR8 (Homo sapiens, UniProt Q8WXD0); experiment: Functional cAMP assay: inhibition of the INSL3 response at the native INSL3 receptor (LGR8); type: cell-based; settings: FIG. 4; human 293T cells stably transfected with human LGR8; cAMP ELISA
T1 construct: expressed in transfected cells; host or cells: human 293T cells, stably transfected
Method: Human 293T cells stably transfected with human LGR7, or LGR8 were preincubated in the presence of 0.25 mM 3-isobutyl-1-methyl xanthine (IBMX, Sigma) before various treatments for 30 minutes. At the end of the incubation cells were lysed for measurement of cAMP using a well-characterized cAMP ELISA (Satoko et al., J Biol Chem, 278:7855-7862). All experiments were repeated at least three times using cells from independent transfections, Results are plotted as pmol cAMP/10^4 cells.

T1 sequence (Q8WXD0 whole entry): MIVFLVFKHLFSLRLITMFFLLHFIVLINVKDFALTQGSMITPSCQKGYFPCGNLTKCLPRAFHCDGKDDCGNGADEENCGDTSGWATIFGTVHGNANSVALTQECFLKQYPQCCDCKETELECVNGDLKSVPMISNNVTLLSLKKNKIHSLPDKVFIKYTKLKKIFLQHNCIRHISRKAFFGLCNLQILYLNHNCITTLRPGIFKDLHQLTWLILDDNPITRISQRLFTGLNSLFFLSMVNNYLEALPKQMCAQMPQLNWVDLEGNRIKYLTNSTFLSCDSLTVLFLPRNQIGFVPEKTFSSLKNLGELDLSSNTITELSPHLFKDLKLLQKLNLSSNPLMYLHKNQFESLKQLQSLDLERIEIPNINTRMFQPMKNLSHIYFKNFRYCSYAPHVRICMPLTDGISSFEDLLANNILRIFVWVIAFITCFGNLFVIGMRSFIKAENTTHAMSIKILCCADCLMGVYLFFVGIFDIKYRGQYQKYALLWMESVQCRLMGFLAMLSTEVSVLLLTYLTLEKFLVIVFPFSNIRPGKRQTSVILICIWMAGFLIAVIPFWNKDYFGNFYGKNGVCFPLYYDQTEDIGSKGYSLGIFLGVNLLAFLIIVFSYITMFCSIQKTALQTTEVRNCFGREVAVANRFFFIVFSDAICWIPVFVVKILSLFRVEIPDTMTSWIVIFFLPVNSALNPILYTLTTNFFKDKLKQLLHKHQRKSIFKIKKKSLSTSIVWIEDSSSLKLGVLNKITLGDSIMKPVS

For “cINSLa: cyclic INSL3 B-chain mimetic; Glu4 and Arg26 replaced with cysteine and a disulphide bond formed (PTPCMREKLCGHHFVRALVRVCGGPCWSTEA; disulfide 4-26; cysteine pairing not given here)”, the “alpha-helical content from CD spectra” value [1] was “significant alpha-helical content” and the “inhibition of the response of INSL3 (measured by cAMP response) to the native INSL3 receptor (LGR8)” value [2] was “antagonistic activity”.
